Numbered stars: 1 amine (or outer) side, 2 acyl side, 3 side chain; on linkers, the order of the positions; unused ones are H or OH. Bridge positions count the residues as written; N and C are the ends. Side chains are listed from the residue outwards. Ends that are not written are not given here. * marks the point of attachment. C20 diacid = O=C(O)CCCCCCCCCCCCCCCCCCC(=O)*; γGlu = O=C(O)[C@H](CCC(=O)[*:2])N[*:1]
Experiments:
rat calcitonin receptor = target: T1, rat calcitonin receptor (rat, UniProt P32214 25-516); assay: SPA competition with 125I-calcitonin, membranes of BHK cells with rat CTR (Assay VIII)
T1 construct: whole, on cells; Used as membranes prepared from BHK tk'ts 13 cells transiently transfected with the rat calcitonin receptor (Assay VIII); also called rCTR; rat calcitonin (a) receptor
T1 sequence (looked up): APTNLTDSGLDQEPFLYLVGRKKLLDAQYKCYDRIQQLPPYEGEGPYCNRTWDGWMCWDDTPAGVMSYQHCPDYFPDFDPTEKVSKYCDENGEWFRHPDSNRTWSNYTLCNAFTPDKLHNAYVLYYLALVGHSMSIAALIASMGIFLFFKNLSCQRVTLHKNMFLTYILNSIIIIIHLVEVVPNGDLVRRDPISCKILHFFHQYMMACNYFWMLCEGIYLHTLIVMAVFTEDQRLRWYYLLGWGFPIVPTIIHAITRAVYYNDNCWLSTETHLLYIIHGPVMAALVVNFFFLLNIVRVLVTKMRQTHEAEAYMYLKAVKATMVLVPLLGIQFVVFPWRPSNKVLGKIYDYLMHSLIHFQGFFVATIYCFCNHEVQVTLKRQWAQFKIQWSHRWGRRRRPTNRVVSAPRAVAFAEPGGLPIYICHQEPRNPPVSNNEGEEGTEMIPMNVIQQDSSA

[1] = target: T2, rat amylin receptor (rat calcitonin receptor + rat RAMP 3) (rat, UniProt P32214 25-516; Q9JJ73 23-147); assay: SPA competition with 125I-rat amylin, membranes of BHK cells with rat CTR + rat RAMP3 (Assay VI)
T2 construct: whole, on cells; Used as membranes prepared from BHK tk'ts 13 cells transiently transfected with rat calcitonin receptor and rat RAMP 3 (Assay VI); also called rAmylin-R; rat amylin 3(a) receptor
T2 sequence (looked up) 1: T1 sequence (looked up)
T2 sequence (looked up) 2: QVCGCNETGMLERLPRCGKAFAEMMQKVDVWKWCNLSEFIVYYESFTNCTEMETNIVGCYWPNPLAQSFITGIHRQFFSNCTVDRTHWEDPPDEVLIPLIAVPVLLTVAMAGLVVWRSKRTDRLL
Procedure: The binding assay was performed using scintillation proximity assay (SPA) beads (RPNQ0001) from PerkinElmer and cell membranes from the Amylin 3(a)/CRE-luc cells (as described in Assay (II)) were used. Membranes were prepared in the following way; the cells were rinsed with PBS and incubated with Versene for approximately 5 min before harvesting. The cells were flushed with PBS and the cell-suspension was centrifuged for 5 min at 1000 rpm. Cells were homogenized (ultrathurrax) in a buffer containing 20 mM Na-HEPES and 10 mM EDTA (pH 7.4) and centrifuged at 20.000 rpm for 15 min. The resulting pellet was resuspended, homogenized and centrifuged (20.000 rpm, 15 min) in a buffer containing 20 mM Na-HEPES and 0.1 mM EDTA (pH 7.4, buffer 2). The resulting pellet was resuspended in buffer 2 and protein concentration was measured (BCA protein Assay, Pierce). The homogenate was kept cold during the whole procedure. The membranes were kept at −80° C. until use. The assay was performed in a 384 well Optiplate (PerkinElmer) in a total volume of 40 ul. Membranes were mixed with SPA beads. Final concentration of membranes 35 ng/μL final and SPA beads was 0.05 mg/well. Test-compounds were dissolved in DMSO and further diluted in assay buffer (50 mM Hepes, pH 7.4, 1 mM CaCl2, 5 mM MgCl₂, 0.1% OA and 0.02% Tween20). […] The final mixture was incubated with shaking at 400 rpm for 120 min at 25° C. prior to centrifugation (1500 rpm, 10 min). Samples were analyzed on TopCounter™ (Packard). The IC₅₀ was calculated using (one site binding competition analysis) GraphPad Prism5 as a measure of receptor affinity.
Cells were grown in DMEM with 10% FBS and 1% Pen/Strep. Approximately 48 hours after transfection, the cells were harvested and membranes were prepared.

- IC50 (rat calcitonin receptor): 159 nM
- IC50 [1]: 0.335 nM
B1: N^ε1-[(4S)-4-carboxy-4-[[(4S)-4-carboxy-4-(19-carboxynonadecanoylamino)butanoyl]amino]butanoyl]-[Asp14,Arg17,Pro21,Pro27,Arg35]-h-amylin (peptide)
peptide: K([γGlu-γGlu-C20 diacid])CNTATCATQRLADFLRHSSPNFGAIPSSTNVGSRTY-NH2
modifications: disulfide 2-7; N-terminus assumed
SMILES: CC[C@H](C)[C@H](NC(=O)[C@H](C)NC(=O)CNC(=O)[C@H](Cc1ccccc1)NC(=O)[C@H](CC(N)=O)NC(=O)[C@@H]1CCCN1C(=O)[C@H](CO)NC(=O)[C@H](CO)NC(=O)[C@H](Cc1c[nH]cn1)NC(=O)[C@H](CCCNC(=N)N)NC(=O)[C@H](CC(C)C)NC(=O)[C@H](Cc1ccccc1)NC(=O)[C@H](CC(=O)O)NC(=O)[C@H](C)NC(=O)[C@H](CC(C)C)NC(=O)[C@H](CCCNC(=N)N)NC(=O)[C@H](CCC(N)=O)NC(=O)[C@@H](NC(=O)[C@H](C)NC(=O)[C@@H]1CSSC[C@H](NC(=O)[C@@H](N)CCCCNC(=O)CC[C@H](NC(=O)CC[C@H](NC(=O)CCCCCCCCCCCCCCCCCCC(=O)O)C(=O)O)C(=O)O)C(=O)N[C@@H](CC(N)=O)C(=O)N[C@@H]([C@@H](C)O)C(=O)N[C@@H](C)C(=O)N[C@@H]([C@@H](C)O)C(=O)N1)[C@@H](C)O)C(=O)N1CCC[C@H]1C(=O)N[C@@H](CO)C(=O)N[C@@H](CO)C(=O)N[C@H](C(=O)N[C@@H](CC(N)=O)C(=O)N[C@H](C(=O)NCC(=O)N[C@@H](CO)C(=O)N[C@@H](CCCNC(=N)N)C(=O)N[C@H](C(=O)N[C@@H](Cc1ccc(O)cc1)C(N)=O)[C@@H](C)O)C(C)C)[C@@H](C)O
notes: Analogue of human amylin; also called compound 52

From patent US20140087995A1 (published 2014)
